Our source for the Kd values is publication PMC8463877 (2021).

For assay [1], the target named is T1, α-synuclein amyloid fibrils (unlabeled) (UniProt P37840 1-140). Description: 10 °C.
Assay [2] has as its target T1, α-synuclein amyloid fibrils (unlabeled). Description: 37 °C.
For assay [3] the target is unchanged. Kind of assay: 7 °C.
For assay [4] the target is unchanged. Kind of assay: 17 °C.
The target is the same in assay [5]. Description: 30 °C.

A value given as a limit tells only on which side of the number the result lay.

The term Kd denotes the concentration at which binding is half-saturated. Read a high Kd as lower affinity.

B1: GFP-labeled αB-crystallin (αB-c-TEV site-GFP-His tag) (natural protein)
chain: MDIAIHHPWIRRPFFPFHSPSRLFDQFFGEHLLESDLFPTSTSLSPFYLRPPSFLRAPSWFDTGLSEMRLEKDRFSVNLDVKHFSPEELKVKVLGDVIEVHGKHEERQDEHGFISREFHRKYRIPADVDPLTITSSLSSDGVLTVNGPRKQVSGPERTIPITREEKPAVTAAPKK
With B1, the Kd is 12.3 µM in assay [1]; under 0.0103 µM in assay [2]; 45.3 µM in assay [3]; 6.1 µM in assay [4]; 0.0575 µM in assay [5].
